Consider 14 proteins from paper PMC8184817, “Transmission of light signals from the light-oxygen-voltage core via the hydrophobic region of the β-sheet surface in aureochrome-1” (Scientific Reports, 2021).

Series [1] deals with the molecule itself. Nature of the series: SEC; light (L) state: 8 or 50 µM protein illuminated 2 min with blue light, column under continuous LED irradiation; Superdex 75, 400 mM NaCl, 20 mM Tris-HCl pH 7.0, 25 ± 1 °C, 0.5 mL/min; monomer to dimer. On the technique in general: Size exclusion chromatography separates by hydrodynamic size, large species first.
Series [2] concerns the molecule itself. Nature of the series: SEC; dark (D) state: 8 or 50 µM protein incubated 20 min at 25 °C in the dark; Superdex 75 column, 400 mM NaCl, 20 mM Tris-HCl pH 7.0, 25 ± 1 °C, 0.5 mL/min; monomer to dimer.
Series [3] concerns the molecule itself. The experiment in a line: dynamic light scattering (DLS); light (L) state: immediately after 1 min of blue light, 30-60 µM protein, 25 °C, hydrodynamic radius extrapolated to 0 µM protein; monomer to dimer.
Series [4] concerns the molecule itself. Nature of the series: dynamic light scattering (DLS); dark (D) state: 30-60 µM protein, 25 °C, hydrodynamic radius extrapolated to 0 µM protein; monomer to dimer.

By stoichiometry N is commonly meant the number of molecules, sites or subunits per partner or assembly.

B1: Photozipper (PZ), N-terminally truncated aureochrome-1 of Vaucheria frigida, wild type (domain or fragment, UniProt A8QW55 113-348, looked up)
chain: GSISSELTEAQKVERRERNREHAKRSRVRKKFLLESLQQSVNELNHENNSLKESIREHLGPRGDSLIAQSSPEADTLLTDNPSKANRILEDPDYSLVKALQMAQQNFVITDASLPDNPIVYASRGFLTLTGYSLDQILGRNCRFLQGPETDPRAVDKIRNAITKGVDTSVCLLNYRQDGTTFWNLFFVAGLRDSKGNIVNYVGVQSKVSEDYAKLLVNEQNIEYKGVRTSNMLRRK
notes: aureochrome-1 of Vaucheria frigida (VfAUREO1), G113-K348 with C162S and C182S, encoded by the synthetic gene opZL; holds the bZIP and LOV domains; in the light (L) state FMN forms a covalent adduct with a conserved cysteine; also called wtPZ; source: recombinant protein
For B1, the binding result in series [1] is on record as “binds”.

B2: Photozipper (PZ) L201A mutant (domain or fragment, Vaucheria frigida, UniProt A8QW55 113-348, looked up)
chain: GSISSELTEAQKVERRERNREHAKRSRVRKKFLLESLQQSVNELNHENNSLKESIREHLGPRGDSLIAQSSPEADTLLTDNPSKANRIAEDPDYSLVKALQMAQQNFVITDASLPDNPIVYASRGFLTLTGYSLDQILGRNCRFLQGPETDPRAVDKIRNAITKGVDTSVCLLNYRQDGTTFWNLFFVAGLRDSKGNIVNYVGVQSKVSEDYAKLLVNEQNIEYKGVRTSNMLRRK
notes: aureochrome-1 of Vaucheria frigida (VfAUREO1), G113-K348 with C162S and C182S (opZL gene), plus L201A; also called A'α mutant
B2: the binding result in series [2] is listed as “binds”.

B3: Photozipper (PZ) L303A mutant (domain or fragment, Vaucheria frigida, UniProt A8QW55 113-348, looked up)
chain: GSISSELTEAQKVERRERNREHAKRSRVRKKFLLESLQQSVNELNHENNSLKESIREHLGPRGDSLIAQSSPEADTLLTDNPSKANRILEDPDYSLVKALQMAQQNFVITDASLPDNPIVYASRGFLTLTGYSLDQILGRNCRFLQGPETDPRAVDKIRNAITKGVDTSVCLLNYRQDGTTFWNLFFVAGARDSKGNIVNYVGVQSKVSEDYAKLLVNEQNIEYKGVRTSNMLRRK
notes: aureochrome-1 of Vaucheria frigida (VfAUREO1), G113-K348 with C162S and C182S (opZL gene), plus L303A; also called β-sheet mutant
As for B3, the binding result in series [3] is given as “binds”.

B4: Photozipper (PZ) L208A mutant (domain or fragment, Vaucheria frigida, UniProt A8QW55 113-348, looked up)
chain: GSISSELTEAQKVERRERNREHAKRSRVRKKFLLESLQQSVNELNHENNSLKESIREHLGPRGDSLIAQSSPEADTLLTDNPSKANRILEDPDYSAVKALQMAQQNFVITDASLPDNPIVYASRGFLTLTGYSLDQILGRNCRFLQGPETDPRAVDKIRNAITKGVDTSVCLLNYRQDGTTFWNLFFVAGLRDSKGNIVNYVGVQSKVSEDYAKLLVNEQNIEYKGVRTSNMLRRK
notes: aureochrome-1 of Vaucheria frigida (VfAUREO1), G113-K348 with C162S and C182S (opZL gene), plus L208A; also called L208L (as printed once); A'α mutant
Take B4: the binding result in series [2] was “binds”.

B5: Photozipper (PZ) Q217A mutant (domain or fragment, Vaucheria frigida, UniProt A8QW55 113-348, looked up)
chain: GSISSELTEAQKVERRERNREHAKRSRVRKKFLLESLQQSVNELNHENNSLKESIREHLGPRGDSLIAQSSPEADTLLTDNPSKANRILEDPDYSLVKALQMAQANFVITDASLPDNPIVYASRGFLTLTGYSLDQILGRNCRFLQGPETDPRAVDKIRNAITKGVDTSVCLLNYRQDGTTFWNLFFVAGLRDSKGNIVNYVGVQSKVSEDYAKLLVNEQNIEYKGVRTSNMLRRK
notes: aureochrome-1 of Vaucheria frigida (VfAUREO1), G113-K348 with C162S and C182S (opZL gene), plus Q217A; also called hinge mutant
B5: the binding result in series [3] is given as “binds”.

B6: Photozipper (PZ) L212A mutant (domain or fragment, Vaucheria frigida, UniProt A8QW55 113-348, looked up)
chain: GSISSELTEAQKVERRERNREHAKRSRVRKKFLLESLQQSVNELNHENNSLKESIREHLGPRGDSLIAQSSPEADTLLTDNPSKANRILEDPDYSLVKAAQMAQQNFVITDASLPDNPIVYASRGFLTLTGYSLDQILGRNCRFLQGPETDPRAVDKIRNAITKGVDTSVCLLNYRQDGTTFWNLFFVAGLRDSKGNIVNYVGVQSKVSEDYAKLLVNEQNIEYKGVRTSNMLRRK
notes: aureochrome-1 of Vaucheria frigida (VfAUREO1), G113-K348 with C162S and C182S (opZL gene), plus L212A; also called A'α mutant
Turning to B6, the binding result in series [4] is listed as “binds”.

B7: Photozipper (PZ) N218A mutant (domain or fragment, Vaucheria frigida, UniProt A8QW55 113-348, looked up)
chain: GSISSELTEAQKVERRERNREHAKRSRVRKKFLLESLQQSVNELNHENNSLKESIREHLGPRGDSLIAQSSPEADTLLTDNPSKANRILEDPDYSLVKALQMAQQAFVITDASLPDNPIVYASRGFLTLTGYSLDQILGRNCRFLQGPETDPRAVDKIRNAITKGVDTSVCLLNYRQDGTTFWNLFFVAGLRDSKGNIVNYVGVQSKVSEDYAKLLVNEQNIEYKGVRTSNMLRRK
notes: aureochrome-1 of Vaucheria frigida (VfAUREO1), G113-K348 with C162S and C182S (opZL gene), plus N218A; also called hinge mutant
With B7, the binding result in series [3] is given as “binds”.

B8: Photozipper (PZ) V314A mutant (domain or fragment, Vaucheria frigida, UniProt A8QW55 113-348, looked up)
chain: GSISSELTEAQKVERRERNREHAKRSRVRKKFLLESLQQSVNELNHENNSLKESIREHLGPRGDSLIAQSSPEADTLLTDNPSKANRILEDPDYSLVKALQMAQQNFVITDASLPDNPIVYASRGFLTLTGYSLDQILGRNCRFLQGPETDPRAVDKIRNAITKGVDTSVCLLNYRQDGTTFWNLFFVAGLRDSKGNIVNYAGVQSKVSEDYAKLLVNEQNIEYKGVRTSNMLRRK
notes: aureochrome-1 of Vaucheria frigida (VfAUREO1), G113-K348 with C162S and C182S (opZL gene), plus V314A; also called β-sheet mutant
As to B8, the binding result in series [1] is “binds”.

B9: Photozipper (PZ) V316A mutant (domain or fragment, Vaucheria frigida, UniProt A8QW55 113-348, looked up)
chain: GSISSELTEAQKVERRERNREHAKRSRVRKKFLLESLQQSVNELNHENNSLKESIREHLGPRGDSLIAQSSPEADTLLTDNPSKANRILEDPDYSLVKALQMAQQNFVITDASLPDNPIVYASRGFLTLTGYSLDQILGRNCRFLQGPETDPRAVDKIRNAITKGVDTSVCLLNYRQDGTTFWNLFFVAGLRDSKGNIVNYVGAQSKVSEDYAKLLVNEQNIEYKGVRTSNMLRRK
notes: aureochrome-1 of Vaucheria frigida (VfAUREO1), G113-K348 with C162S and C182S (opZL gene), plus V316A; also called β-sheet mutant
Turning to B9, the binding result in series [2] is “binds”.

B10: Photozipper (PZ) F299V mutant (domain or fragment, Vaucheria frigida, UniProt A8QW55 113-348, looked up)
chain: GSISSELTEAQKVERRERNREHAKRSRVRKKFLLESLQQSVNELNHENNSLKESIREHLGPRGDSLIAQSSPEADTLLTDNPSKANRILEDPDYSLVKALQMAQQNFVITDASLPDNPIVYASRGFLTLTGYSLDQILGRNCRFLQGPETDPRAVDKIRNAITKGVDTSVCLLNYRQDGTTFWNLFVVAGLRDSKGNIVNYVGVQSKVSEDYAKLLVNEQNIEYKGVRTSNMLRRK
notes: aureochrome-1 of Vaucheria frigida (VfAUREO1), G113-K348 with C162S and C182S (opZL gene), plus F299V; also called β-sheet mutant
Turning to B10, the binding result in series [3] was “binds”.

B11: Photozipper (PZ) F219V mutant (domain or fragment, Vaucheria frigida, UniProt A8QW55 113-348, looked up)
chain: GSISSELTEAQKVERRERNREHAKRSRVRKKFLLESLQQSVNELNHENNSLKESIREHLGPRGDSLIAQSSPEADTLLTDNPSKANRILEDPDYSLVKALQMAQQNVVITDASLPDNPIVYASRGFLTLTGYSLDQILGRNCRFLQGPETDPRAVDKIRNAITKGVDTSVCLLNYRQDGTTFWNLFFVAGLRDSKGNIVNYVGVQSKVSEDYAKLLVNEQNIEYKGVRTSNMLRRK
notes: aureochrome-1 of Vaucheria frigida (VfAUREO1), G113-K348 with C162S and C182S (opZL gene), plus F219V; also called β-sheet mutant
For the protein B11, in series [2], the “stoichiometry N” value came out at 2.

B12: Photozipper (PZ) V314I mutant (domain or fragment, Vaucheria frigida, UniProt A8QW55 113-348, looked up)
chain: GSISSELTEAQKVERRERNREHAKRSRVRKKFLLESLQQSVNELNHENNSLKESIREHLGPRGDSLIAQSSPEADTLLTDNPSKANRILEDPDYSLVKALQMAQQNFVITDASLPDNPIVYASRGFLTLTGYSLDQILGRNCRFLQGPETDPRAVDKIRNAITKGVDTSVCLLNYRQDGTTFWNLFFVAGLRDSKGNIVNYIGVQSKVSEDYAKLLVNEQNIEYKGVRTSNMLRRK
notes: aureochrome-1 of Vaucheria frigida (VfAUREO1), G113-K348 with C162S and C182S (opZL gene), plus V314I; also called β-sheet mutant
On to B12, for which, in series [2], the “stoichiometry N” value is 2.

B13: Photozipper (PZ) L201A/L208A/L212A triple mutant (domain or fragment, Vaucheria frigida, UniProt A8QW55 113-348, looked up)
chain: GSISSELTEAQKVERRERNREHAKRSRVRKKFLLESLQQSVNELNHENNSLKESIREHLGPRGDSLIAQSSPEADTLLTDNPSKANRIAEDPDYSAVKAAQMAQQNFVITDASLPDNPIVYASRGFLTLTGYSLDQILGRNCRFLQGPETDPRAVDKIRNAITKGVDTSVCLLNYRQDGTTFWNLFFVAGLRDSKGNIVNYVGVQSKVSEDYAKLLVNEQNIEYKGVRTSNMLRRK
notes: aureochrome-1 of Vaucheria frigida (VfAUREO1), G113-K348 with C162S and C182S (opZL gene), plus L201A, L208A and L212A; also called A'α mutant
In the case of B13, the binding result in series [2] is “binds”.

B14: Photozipper (PZ) Q216A mutant (domain or fragment, Vaucheria frigida, UniProt A8QW55 113-348, looked up)
chain: GSISSELTEAQKVERRERNREHAKRSRVRKKFLLESLQQSVNELNHENNSLKESIREHLGPRGDSLIAQSSPEADTLLTDNPSKANRILEDPDYSLVKALQMAAQNFVITDASLPDNPIVYASRGFLTLTGYSLDQILGRNCRFLQGPETDPRAVDKIRNAITKGVDTSVCLLNYRQDGTTFWNLFFVAGLRDSKGNIVNYVGVQSKVSEDYAKLLVNEQNIEYKGVRTSNMLRRK
notes: aureochrome-1 of Vaucheria frigida (VfAUREO1), G113-K348 with C162S and C182S (opZL gene), plus Q216A; also called hinge mutant
On to B14, for which the binding result in series [3] is reported as “binds”.
